Data as given in PMC4161475, “EhCoactosin Stabilizes Actin Filaments in the Protist Parasite Entamoeba histolytica” (PLoS Pathogens, 2014).

Target: G-actin (rabbit skeletal muscle actin, monomeric) (rabbit, UniProt P68135 1-377)
Test: ELISA; solid-phase assay: wells coated with 5 µM G-actin in PBS, 5 µM protein added, detected with anti-EhCoactosin antibody; in the presence of Ca2+ (2 mM) or EGTA (5 mM)
Conditions: both partners purified

| Binder | fold of the level of binding of EhCaBP1 [fold] | fold increase in binding against WT [fold] |
| --- | --- | --- |
| EhCoactosin, full-length wild type (natural protein, Cloned in pET28b between NcoI and XhoI; also called EhCoWT; WT EhCoactosin; source: E. coli BL21 (DE3), purified (Nickel-NTA, Superdex 75 gel filtration)) MSGFDLSEVAGPVAEVIDDKNEEVEFVVFGVQTQPNKLVVDAKGKGGLEEVKAALKEDALQFAYYRTISGDEESKRVKFVFISWAGEGIKKPKLRAVMSILKGDVKNVINNFHIELHATSLDDLVEDEIAAKIKKAGGADYSFNTTSN | 2 | – |
| EhCoactosin with the N-terminal seven amino acid residues deleted (domain or fragment, Coactosin of Entamoeba histolytica, NCBI XP_650926.1, 7 residues deleted from the N terminus; The tag is told for the EhCoactosin gene in pET28b; also called EhCoΔN; N-terminal truncation mutant; source: E. coli BL21 (DE3), purified (Nickel-NTA, Superdex 75 gel filtration)) EVAGPVAEVIDDKNEEVEFVVFGVQTQPNKLVVDAKGKGGLEEVKAALKEDALQFAYYRTISGDEESKRVKFVFISWAGEGIKKPKLRAVMSILKGDVKNVINNFHIELHATSLDDLVEDEIAAKIKKAGGADYSFNTTSN | – | 2 |
